Laboratory results: PMC10511561, “Synergism between CMG helicase and leading strand DNA polymerase at replication fork” (Nature Communications, 2023)

T1: Mcm4 (subunit of CMG) (yeast, UniProt P30665 1-933)
T1 construct: Mcm4, yeast; Chain of m1 as it stands in the replisome structure; source: yeast strain yJCZ2, purified as part of CMG (anti-FLAG M2 resin, Mono Q, Superose 6)
T1 sequence: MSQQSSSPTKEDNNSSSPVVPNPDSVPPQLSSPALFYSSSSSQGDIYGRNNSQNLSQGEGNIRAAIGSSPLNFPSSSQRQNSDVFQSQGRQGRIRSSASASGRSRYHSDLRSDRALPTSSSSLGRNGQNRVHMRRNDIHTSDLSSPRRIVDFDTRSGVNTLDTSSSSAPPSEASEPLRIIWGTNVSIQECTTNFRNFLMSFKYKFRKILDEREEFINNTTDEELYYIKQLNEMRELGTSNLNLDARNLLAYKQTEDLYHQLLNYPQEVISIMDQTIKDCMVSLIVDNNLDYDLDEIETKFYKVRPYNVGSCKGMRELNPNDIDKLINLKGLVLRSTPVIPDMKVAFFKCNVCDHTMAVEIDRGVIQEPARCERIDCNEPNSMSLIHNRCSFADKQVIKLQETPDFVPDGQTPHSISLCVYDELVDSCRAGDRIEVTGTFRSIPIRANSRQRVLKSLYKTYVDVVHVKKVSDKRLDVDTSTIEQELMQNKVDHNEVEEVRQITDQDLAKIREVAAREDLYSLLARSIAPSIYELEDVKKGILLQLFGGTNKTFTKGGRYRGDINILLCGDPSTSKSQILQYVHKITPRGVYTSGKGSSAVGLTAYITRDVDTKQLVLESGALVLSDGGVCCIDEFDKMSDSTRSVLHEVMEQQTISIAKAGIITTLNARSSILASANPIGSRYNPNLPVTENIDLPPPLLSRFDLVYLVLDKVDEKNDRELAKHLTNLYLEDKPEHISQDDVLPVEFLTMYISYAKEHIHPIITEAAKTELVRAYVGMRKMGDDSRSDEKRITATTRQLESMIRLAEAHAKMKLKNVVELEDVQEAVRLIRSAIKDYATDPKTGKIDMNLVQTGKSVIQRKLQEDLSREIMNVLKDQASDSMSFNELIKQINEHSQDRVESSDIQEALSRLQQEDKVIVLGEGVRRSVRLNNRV

T2: Mcm5 (subunit of CMG) (yeast, UniProt P29496 1-775)
T2 construct: Mcm5, yeast; Chain of m1 as it stands in the replisome structure; also called Mcm5-CTD; Mcm5-WHD; source: yeast strain yJCZ2, purified as part of CMG (anti-FLAG M2 resin, Mono Q, Superose 6)
T2 sequence: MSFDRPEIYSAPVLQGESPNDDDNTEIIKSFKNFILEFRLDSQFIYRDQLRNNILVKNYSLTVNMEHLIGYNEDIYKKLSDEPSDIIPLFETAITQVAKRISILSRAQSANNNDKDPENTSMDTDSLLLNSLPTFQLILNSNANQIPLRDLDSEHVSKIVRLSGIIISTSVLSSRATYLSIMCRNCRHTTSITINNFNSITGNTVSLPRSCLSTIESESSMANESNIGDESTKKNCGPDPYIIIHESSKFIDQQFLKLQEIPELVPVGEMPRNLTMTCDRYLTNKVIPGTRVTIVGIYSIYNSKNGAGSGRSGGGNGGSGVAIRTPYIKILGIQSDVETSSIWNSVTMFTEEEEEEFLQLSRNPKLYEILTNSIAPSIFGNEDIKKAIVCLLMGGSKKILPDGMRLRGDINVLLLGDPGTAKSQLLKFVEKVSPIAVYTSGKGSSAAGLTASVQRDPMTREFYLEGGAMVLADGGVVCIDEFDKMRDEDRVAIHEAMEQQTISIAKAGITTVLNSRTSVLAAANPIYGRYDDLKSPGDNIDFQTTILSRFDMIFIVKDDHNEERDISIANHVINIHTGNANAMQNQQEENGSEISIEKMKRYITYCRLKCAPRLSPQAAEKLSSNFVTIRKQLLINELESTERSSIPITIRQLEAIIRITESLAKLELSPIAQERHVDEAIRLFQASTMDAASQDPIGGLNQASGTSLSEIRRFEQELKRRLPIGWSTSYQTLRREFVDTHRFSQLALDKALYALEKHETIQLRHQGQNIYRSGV

B1: Psf1 (subunit of GINS in CMG) (natural protein, yeast)
chain: MYGDLGNKLVLEAKRTKQLYARSNQDVNLPMYHEDIIRNILKEVSNLRKNTEYLKEQQQLGMLDDKVAKCQYFVTLLCMERNKRCLLAYQRLRTDILDSMAWNNNGLDLMSSITFSQQDTNNLSHQEQEYLKEYCDLITDLKSGDLVDIDLSGSLVPPSDVFIDVRVLKDAGEIQTEYGVFNLIKDSQFFVRQSDVERLIQQGYLQKI
notes: Psf1, yeast, subunit of GINS; Chain of m1 as it stands in the replisome structure; also called Psf1 B domain; Psf1-B domain; source: yeast strain yJCZ2, purified as part of CMG (anti-FLAG M2 resin, Mono Q, Superose 6)
B2: Mcm7 (subunit of CMG) (natural protein, yeast)
chain: MSAALPSIQLPVDYNNLFNEITDFLVTFKQDTLSSDATRNENEDENLDAENIEQHLLEKGPKYMAMLQKVANRELNSVIIDLDDILQYQNEKFLQGTQADDLVSAIQQNANHFTELFCRAIDNNMPLPTKEIDYKDDVLDVILNQRRLRNERMLSDRTNEIRSENLMDTTMDPPSSMNDALREVVEDETELFPPNLTRRYFLYFKPLSQNCARRYRKKAISSKPLSVRQIKGDFLGQLITVRGIITRVSDVKPAVEVIAYTCDQCGYEVFQEVNSRTFTPLSECTSEECSQNQTKGQLFMSTRASKFSAFQECKIQELSQQVPVGHIPRSLNIHVNGTLVRSLSPGDIVDVTGIFLPAPYTGFKALKAGLLTETYLEAQFVRQHKKKFASFSLTSDVEERVMELITSGDVYNRLAKSIAPEIYGNLDVKKALLLLLVGGVDKRVGDGMKIRGDINVCLMGDPGVAKSQLLKAICKISPRGVYTTGKGSSGVGLTAAVMKDPVTDEMILEGGALVLADNGICCIDEFDKMDESDRTAIHEVMEQQTISISKAGINTTLNARTSILAAANPLYGRYNPRLSPLDNINLPAALLSRFDILFLMLDIPSRDDDEKLAEHVTYVHMHNKQPDLDFTPVEPSKMREYIAYAKTKRPVMSEAVNDYVVQAYIRLRQDSKREMDSKFSFGQATPRTLLGIIRLSQALAKLRLADMVDIDDVEEALRLVRVSKESLYQETNKSKEDESPTTKIFTIIKKMLQETGKNTLSYENIVKTVRLRGFTMLQLSNCIQEYSYLNVWHLINEGNTLKFVDDGTMDTDQEDSLVSTPKLAPQTTASANVSAQDSDIDLQDA
notes: Mcm7, yeast; Chain of m1 as it stands in the replisome structure; source: yeast strain yJCZ2, purified as part of CMG (anti-FLAG M2 resin, Mono Q, Superose 6)
B3: Dpb2 (subunit of Polε in the replisome) (natural protein, yeast)
chain: MFGSGNVLPVKIQPPLLRPLAYRVLSRKYGLSIKSDGLSALAEFVGTNIGANWRQGPATIKFLEQFAAVWKQQERGLFIDQSGVKEVIQEMKEREKVEWSHEHPIQHEENILGRTDDDENNSDDEMPIAADSSLQNVSLSSPMRQPTERDEYKQPFKPESSKALDWRDYFKVINASQQQRFSYNPHKMQFIFVPNKKQNGLGGIAGFLPDIEDKVQMFLTRYYLTNDRVMRNENFQNSDMFNPLSSMVSLQNELSNTNRQQQSSSMSITPIKNLLGRDAQNFLLLGLLNKNFKGNWSLEDPSGSVEIDISQTIPTQGHYYVPGCMVLVEGIYYSVGNKFHVTSMTLPPGERREITLETIGNLDLLGIHGISNNNFIARLDKDLKIRLHLLEKELTDHKFVILGANLFLDDLKIMTALSKILQKLNDDPPTLLIWQGSFTSVPVFASMSSRNISSSTQFKNNFDALATLLSRFDNLTENTTMIFIPGPNDLWGSMVSLGASGTLPQDPIPSAFTKKINKVCKNVVWSSNPTRIAYLSQEIVIFRDDLSGRFKRHRLEFPFNESEDVYTENDNMMSKDTDIVPIDELVKEPDQLPQKVQETRKLVKTILDQGHLSPFLDSLRPISWDLDHTLTLCPIPSTMVLCDTTSAQFDLTYNGCKVINPGSFIHNRRARYMEYVPSSKKTIQEEIYI
notes: Dpb2, yeast, subunit of Polε; NTD 12-98, linker 99-156, PDE domain 157-689 as printed; Chain of m2 as it stands in the replisome structure; also called Dpb2-NTD; Dpb2-OB; source: yeast strain yAJ2, purified as part of Polε (calmodulin resin, TEV elution, Mono Q, Superose 6)

Experiments:
Test in all cases: cryo-EM structure; replisome assembled at room temperature from 0.7 uM CMG, forked DNA and ATPγS, then 1.5 molar excess of Polε, Ctf4, Tof1-Csm3; 100 mM KCl, 25 mM HEPES pH 7.6, 4 mM MgCl2, 4 mM ATPγS; 10-30% glycerol gradient with glutaraldehyde fixation; States I-VI by 3D classification
Details in all cases: both partners purified
[1] = biological target: B3
Mcm4 (subunit of CMG) = biological target: T1, Mcm4 (subunit of CMG)
Tof1-Csm3 = biological target: T3, Tof1-Csm3 (yeast, UniProt P53840 1-1238; Q04659 1-317)
T3 construct: Tof1, yeast; Csm3, yeast; Purified beforehand as one complex; also called Tof1 and Csm3; components of the fork protection complex (FPC); source: yeast strain yAE48, galactose-induced, purified (calmodulin resin, TEV elution, Mono Q, Superose 6); not shown: CBP, N-terminal, cleaved

Mcm3 (subunit of CMG) = biological target: T4, Mcm3 (subunit of CMG) (yeast, UniProt P24279 1-971)
T4 construct: Mcm3, yeast; Chain of m1 as it stands in the replisome structure; source: yeast strain yJCZ2, purified as part of CMG (anti-FLAG M2 resin, Mono Q, Superose 6)

Mcm5 (subunit of CMG) = biological target: T2, Mcm5 (subunit of CMG)

T4 sequence (P24279 whole entry): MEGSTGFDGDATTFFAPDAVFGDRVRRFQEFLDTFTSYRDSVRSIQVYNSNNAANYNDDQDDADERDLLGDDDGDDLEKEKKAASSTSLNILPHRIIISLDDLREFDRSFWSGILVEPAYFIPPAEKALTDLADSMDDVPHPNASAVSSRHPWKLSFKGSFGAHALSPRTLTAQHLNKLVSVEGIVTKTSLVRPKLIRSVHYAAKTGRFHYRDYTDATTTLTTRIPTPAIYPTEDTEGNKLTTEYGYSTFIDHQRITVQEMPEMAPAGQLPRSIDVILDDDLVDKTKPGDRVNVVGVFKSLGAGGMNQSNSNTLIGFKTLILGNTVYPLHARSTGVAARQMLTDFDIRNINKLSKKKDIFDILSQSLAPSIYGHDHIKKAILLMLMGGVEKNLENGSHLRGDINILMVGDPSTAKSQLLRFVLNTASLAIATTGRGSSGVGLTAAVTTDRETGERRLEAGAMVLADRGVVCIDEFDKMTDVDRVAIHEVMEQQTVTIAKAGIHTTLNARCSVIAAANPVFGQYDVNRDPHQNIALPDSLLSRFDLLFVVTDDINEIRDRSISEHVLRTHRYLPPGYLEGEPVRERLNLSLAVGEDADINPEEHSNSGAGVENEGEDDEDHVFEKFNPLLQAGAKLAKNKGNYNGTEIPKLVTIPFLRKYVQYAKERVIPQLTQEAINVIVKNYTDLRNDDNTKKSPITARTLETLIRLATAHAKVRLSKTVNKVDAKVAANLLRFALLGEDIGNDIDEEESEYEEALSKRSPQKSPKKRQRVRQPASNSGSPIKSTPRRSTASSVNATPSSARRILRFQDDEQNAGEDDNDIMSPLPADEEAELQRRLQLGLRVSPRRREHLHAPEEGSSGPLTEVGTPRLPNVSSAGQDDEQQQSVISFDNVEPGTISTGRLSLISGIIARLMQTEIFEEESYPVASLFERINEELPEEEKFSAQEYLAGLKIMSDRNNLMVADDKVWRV
T3 sequence (P53840 whole entry, chain 1 of 2): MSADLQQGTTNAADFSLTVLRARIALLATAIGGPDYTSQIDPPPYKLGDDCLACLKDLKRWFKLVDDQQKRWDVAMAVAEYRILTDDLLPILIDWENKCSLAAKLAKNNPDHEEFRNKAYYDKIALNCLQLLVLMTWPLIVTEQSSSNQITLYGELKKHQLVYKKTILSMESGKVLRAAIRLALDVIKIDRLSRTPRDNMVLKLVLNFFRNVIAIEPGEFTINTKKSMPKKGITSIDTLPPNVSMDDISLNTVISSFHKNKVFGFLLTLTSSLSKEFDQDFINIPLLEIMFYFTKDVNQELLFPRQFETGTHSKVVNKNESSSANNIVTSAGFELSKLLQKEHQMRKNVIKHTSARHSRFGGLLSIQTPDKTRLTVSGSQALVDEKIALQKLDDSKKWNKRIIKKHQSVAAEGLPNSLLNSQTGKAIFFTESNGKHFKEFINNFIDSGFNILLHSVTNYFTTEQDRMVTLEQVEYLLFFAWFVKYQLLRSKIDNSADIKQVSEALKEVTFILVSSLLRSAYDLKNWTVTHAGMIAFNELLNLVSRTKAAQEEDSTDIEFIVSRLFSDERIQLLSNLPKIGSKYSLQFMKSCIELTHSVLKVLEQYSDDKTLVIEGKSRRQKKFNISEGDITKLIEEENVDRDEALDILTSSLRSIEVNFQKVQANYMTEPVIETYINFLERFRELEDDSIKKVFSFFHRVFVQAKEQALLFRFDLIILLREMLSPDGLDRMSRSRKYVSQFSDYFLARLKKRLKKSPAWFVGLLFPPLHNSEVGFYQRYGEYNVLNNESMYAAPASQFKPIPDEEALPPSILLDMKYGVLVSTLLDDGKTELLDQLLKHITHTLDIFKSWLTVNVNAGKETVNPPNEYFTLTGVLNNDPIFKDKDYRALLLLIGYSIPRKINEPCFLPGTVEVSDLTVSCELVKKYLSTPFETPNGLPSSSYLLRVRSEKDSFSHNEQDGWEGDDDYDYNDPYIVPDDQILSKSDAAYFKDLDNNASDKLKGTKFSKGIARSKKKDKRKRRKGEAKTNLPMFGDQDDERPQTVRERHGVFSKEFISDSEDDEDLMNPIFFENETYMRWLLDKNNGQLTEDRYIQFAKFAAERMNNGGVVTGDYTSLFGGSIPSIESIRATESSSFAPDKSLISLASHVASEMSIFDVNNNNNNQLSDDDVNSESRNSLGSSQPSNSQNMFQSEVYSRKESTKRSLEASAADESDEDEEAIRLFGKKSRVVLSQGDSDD
T3 sequence (Q04659 whole entry, chain 2 of 2): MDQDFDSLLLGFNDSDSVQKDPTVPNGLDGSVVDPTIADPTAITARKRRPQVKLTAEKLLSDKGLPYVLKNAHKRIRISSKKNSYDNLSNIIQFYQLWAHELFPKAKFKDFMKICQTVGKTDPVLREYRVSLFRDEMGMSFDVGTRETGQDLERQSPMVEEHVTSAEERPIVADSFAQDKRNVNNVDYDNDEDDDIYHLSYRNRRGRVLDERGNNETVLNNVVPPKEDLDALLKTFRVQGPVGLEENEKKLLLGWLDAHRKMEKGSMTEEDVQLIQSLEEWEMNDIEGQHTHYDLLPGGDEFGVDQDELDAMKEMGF

binding result [1]	binding result (Mcm4 (subunit of CMG))	binding result (Tof1-Csm3)	binding result (Mcm3 (subunit of CMG))	binding result (Mcm5 (subunit of CMG))	Binder
binds	–	–	–	–	B1
–	binds	binds	binds	–	B2
–	–	–	binds	binds	B3
